We go through 2 molecules from publication PMC8553545.

For this data set, the target named is ZBTB7A ZF1-4 (370-500) pXC2222 (Homo sapiens, UniProt O95365 370-500). The data set can be described thus: X-ray crystallography.
Sequence of ZBTB7A ZF1-4 (370-500) pXC2222 (O95365 370-500): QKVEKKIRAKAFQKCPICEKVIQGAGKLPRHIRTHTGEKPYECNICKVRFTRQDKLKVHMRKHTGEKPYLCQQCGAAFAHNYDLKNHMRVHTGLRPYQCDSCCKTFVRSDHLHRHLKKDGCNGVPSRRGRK

B1: 7N5S oligo (dsDNA)
DNA 1: GGGGCCCCTTCCCCA
DNA 2: CTGGGGAAGGGGCCC
With B1, the binding result is given as “binds”.

B2: 7N5T oligo (dsDNA)
DNA 1: AGGCCCCTTCCCCAC
DNA 2: TGTGGGGAAGGGGCC
For B2, the binding result is given as “binds”.
